{"source": "paper PMC6179936", "about": "(Journal of immunology (Baltimore, Md. : 1950), 2018)", "biological_target": "T1, Recombinant human SAA1 made in human embryonic kidney (HEK) cells (human, UniProt P0DJI8 19-122)", "T1 sequence (looked up)": "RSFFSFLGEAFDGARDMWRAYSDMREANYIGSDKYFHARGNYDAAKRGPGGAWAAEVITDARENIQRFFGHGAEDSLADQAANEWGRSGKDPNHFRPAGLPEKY", "assay": "retention on a 3 kDa cutoff centrifugal filter, read by TNFα from J774 cells", "note": "Where no end group is shown, it is not given here. The star is where a group is joined. X1 = 2,3‑bis(palmitoyloxy)‑(2RS)‑propyl, CCCCCCCCCCCCCCCC(=O)OCC(C*)OC(=O)CCCCCCCCCCCCCCC; Palmitoyl = CCCCCCCCCCCCCCCC(=O)*"}
{"binder": "Palmitoyl-C(X1)SKKKK", "note": "[Pam3CSK4, synthetic triacylated lipopeptide]", "values": [{"measurement": "binding result", "value": "binds"}]}
